From IntAct's records for PubMed 34606829 come the findings set out here.

The labels stand for the following.
B1: ALK tyrosine kinase receptor (Homo sapiens), Q9UM73 (parent)
chain: MGAIGLLWLLPLLLSTAAVGSGMGTGQRAGSPAAGPPLQPREPLSYSRLQRKSLAVDFVVPSLFRVYARDLLLPPSSSELKAGRPEARGSLALDCAPLLRLLGPAPGVSWTAGSPAPAEARTLSRVLKGGSVRKLRRAKQLVLELGEEAILEGCVGPPGEAAVGLLQFNLSELFSWWIRQGEGRLRIRLMPEKKASEVGREGRLSAAIRASQPRLLFQIFGTGHSSLESPTNMPSPSPDYFTWNLTWIMKDSFPFLSHRSRYGLECSFDFPCELEYSPPLHDLRNQSWSWRRIPSEEASQMDLLDGPGAERSKEMPRGSFLLLNTSADSKHTILSPWMRSSSEHCTLAVSVHRHLQPSGRYIAQLLPHNEAAREILLMPTPGKHGWTVLQGRIGRPDNPFRVALEYISSGNRSLSAVDFFALKNCSEGTSPGSKMALQSSFTCWNGTVLQLGQACDFHQDCAQGEDESQMCRKLPVGFYCNFEDGFCGWTQGTLSPHTPQWQVRTLKDARFQDHQDHALLLSTTDVPASESATVTSATFPAPIKSSPCELRMSWLIRGVLRGNVSLVLVENKTGKEQGRMVWHVAAYEGLSLWQWMVLPLLDVSDRFWLQMVAWWGQGSRAIVAFDNISISLDCYLTISGEDKILQNTAPKSRNLFERNPNKELKPGENSPRQTPIFDPTVHWLFTTCGASGPHGPTQAQCNNAYQNSNLSVEVGSEGPLKGIQIWKVPATDTYSISGYGAAGGKGGKNTMMRSHGVSVLGIFNLEKDDMLYILVGQQGEDACPSTNQLIQKVCIGENNVIEEEIRVNRSVHEWAGGGGGGGGATYVFKMKDGVPVPLIIAAGGGGRAYGAKTDTFHPERLENNSSVLGLNGNSGAAGGGGGWNDNTSLLWAGKSLQEGATGGHSCPQAMKKWGWETRGGFGGGGGGCSSGGGGGGYIGGNAASNNDPEMDGEDGVSFISPLGILYTPALKVMEGHGEVNIKHYLNCSHCEVDECHMDPESHKVICFCDHGTVLAEDGVSCIVSPTPEPHLPLSLILSVVTSALVAALVLAFSGIMIVYRRKHQELQAMQMELQSPEYKLSKLRTSTIMTDYNPNYCFAGKTSSISDLKEVPRKNITLIRGLGHGAFGEVYEGQVSGMPNDPSPLQVAVKTLPEVCSEQDELDFLMEALIISKFNHQNIVRCIGVSLQSLPRFILLELMAGGDLKSFLRETRPRPSQPSSLAMLDLLHVARDIACGCQYLEENHFIHRDIAARNCLLTCPGPGRVAKIGDFGMARDIYRASYYRKGGCAMLPVKWMPPEAFMEGIFTSKTDTWSFGVLLWEIFSLGYMPYPSKSNQEVLEFVTSGGRMDPPKNCPGPVYRIMTQCWQHQPEDRPNFAIILERIEYCTQDPDVINTALPIEYGPLVEEEEKVPVRPKDPEGVPPLLVSQQAKREEERSPAAPPPLPTTSSGKAAKKPTAAEISVRVPRGPAVEGGHVNMAFSQSNPPSELHKVHGSRNKPTSLWNPTYGSWFTEKPTKKNNPIAKKEPHDRGNLGLEGSCTVPPNVATGRLPGASLLLEPSSLTANMKEVPLFRLRHFPCGNVNYGYQQQGLPLEAATAPGAGHYEDTILKSKNSMNQPGP
partner: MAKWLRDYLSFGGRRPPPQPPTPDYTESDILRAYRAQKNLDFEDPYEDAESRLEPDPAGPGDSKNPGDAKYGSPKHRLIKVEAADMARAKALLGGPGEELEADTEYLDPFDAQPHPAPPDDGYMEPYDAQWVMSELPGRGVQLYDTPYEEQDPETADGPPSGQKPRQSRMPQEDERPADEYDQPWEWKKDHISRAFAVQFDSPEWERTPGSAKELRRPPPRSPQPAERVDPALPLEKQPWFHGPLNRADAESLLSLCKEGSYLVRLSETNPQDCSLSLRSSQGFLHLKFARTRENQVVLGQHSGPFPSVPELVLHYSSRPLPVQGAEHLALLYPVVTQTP
B2: ALK tyrosine kinase receptor (Homo sapiens), Q9UM73 (parent)
chain: B1 chain
partner: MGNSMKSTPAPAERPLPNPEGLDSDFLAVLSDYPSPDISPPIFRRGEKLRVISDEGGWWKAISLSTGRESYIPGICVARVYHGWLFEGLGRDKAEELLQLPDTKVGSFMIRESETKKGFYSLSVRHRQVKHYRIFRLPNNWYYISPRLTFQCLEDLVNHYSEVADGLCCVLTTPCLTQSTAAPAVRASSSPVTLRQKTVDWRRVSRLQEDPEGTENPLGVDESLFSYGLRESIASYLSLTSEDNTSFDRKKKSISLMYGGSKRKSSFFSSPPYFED
B3: ALK tyrosine kinase receptor (Homo sapiens), Q9UM73 (parent)
chain: B1 chain
partner: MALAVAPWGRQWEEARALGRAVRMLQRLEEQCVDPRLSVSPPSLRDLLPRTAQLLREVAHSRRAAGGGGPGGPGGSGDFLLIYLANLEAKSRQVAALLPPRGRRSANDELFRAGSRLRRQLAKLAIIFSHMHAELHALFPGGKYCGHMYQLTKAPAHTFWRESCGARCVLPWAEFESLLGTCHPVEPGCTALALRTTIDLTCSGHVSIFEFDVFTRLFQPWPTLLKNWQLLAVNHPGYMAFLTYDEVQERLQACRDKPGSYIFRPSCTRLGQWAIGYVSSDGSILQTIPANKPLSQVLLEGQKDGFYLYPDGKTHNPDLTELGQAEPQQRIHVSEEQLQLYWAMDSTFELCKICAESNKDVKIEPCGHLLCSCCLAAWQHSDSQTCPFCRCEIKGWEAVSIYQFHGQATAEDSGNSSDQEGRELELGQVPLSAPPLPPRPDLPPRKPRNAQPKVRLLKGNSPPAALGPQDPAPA
B4: ALK tyrosine kinase receptor (Homo sapiens), Q9UM73 (parent)
chain: B1 chain

In the first assay the parent is B1. The conditions noted are these: with shd_human SHD.
Turning to F1245C, the “effect of a mutation on the interaction” value is “increasing interaction strength”.
Consider I1250T, for which the “effect of a mutation on the interaction” value is “decreasing interaction strength”.
In the case of L1196M, the “effect of a mutation on the interaction” value is recorded as “increasing interaction strength”.

The next assay covers variants of B2. To be noted: with slap1_human SLA.
F1245C: the “effect of a mutation on the interaction” value is listed as “increasing interaction strength”.
Regarding I1250T, the “effect of a mutation on the interaction” value is “decreasing interaction strength”.
As for L1196M, the “effect of a mutation on the interaction” value is “increasing interaction strength”.

Variants of B3 are the subject of the next assay. The conditions noted are these: with cblc_human CBLC.
Regarding L1196M, the “effect of a mutation on the interaction” value was “increasing interaction strength”.
As for F1245C, the “effect of a mutation on the interaction” value is “increasing interaction strength”.
As to I1250T, the “effect of a mutation on the interaction” value is listed as “decreasing interaction strength”.

In another assay the parent is B4. The conditions noted are these: with abl1_human ABL1, P00519.
Chain of abl1_human ABL1, P00519 (P00519 whole entry): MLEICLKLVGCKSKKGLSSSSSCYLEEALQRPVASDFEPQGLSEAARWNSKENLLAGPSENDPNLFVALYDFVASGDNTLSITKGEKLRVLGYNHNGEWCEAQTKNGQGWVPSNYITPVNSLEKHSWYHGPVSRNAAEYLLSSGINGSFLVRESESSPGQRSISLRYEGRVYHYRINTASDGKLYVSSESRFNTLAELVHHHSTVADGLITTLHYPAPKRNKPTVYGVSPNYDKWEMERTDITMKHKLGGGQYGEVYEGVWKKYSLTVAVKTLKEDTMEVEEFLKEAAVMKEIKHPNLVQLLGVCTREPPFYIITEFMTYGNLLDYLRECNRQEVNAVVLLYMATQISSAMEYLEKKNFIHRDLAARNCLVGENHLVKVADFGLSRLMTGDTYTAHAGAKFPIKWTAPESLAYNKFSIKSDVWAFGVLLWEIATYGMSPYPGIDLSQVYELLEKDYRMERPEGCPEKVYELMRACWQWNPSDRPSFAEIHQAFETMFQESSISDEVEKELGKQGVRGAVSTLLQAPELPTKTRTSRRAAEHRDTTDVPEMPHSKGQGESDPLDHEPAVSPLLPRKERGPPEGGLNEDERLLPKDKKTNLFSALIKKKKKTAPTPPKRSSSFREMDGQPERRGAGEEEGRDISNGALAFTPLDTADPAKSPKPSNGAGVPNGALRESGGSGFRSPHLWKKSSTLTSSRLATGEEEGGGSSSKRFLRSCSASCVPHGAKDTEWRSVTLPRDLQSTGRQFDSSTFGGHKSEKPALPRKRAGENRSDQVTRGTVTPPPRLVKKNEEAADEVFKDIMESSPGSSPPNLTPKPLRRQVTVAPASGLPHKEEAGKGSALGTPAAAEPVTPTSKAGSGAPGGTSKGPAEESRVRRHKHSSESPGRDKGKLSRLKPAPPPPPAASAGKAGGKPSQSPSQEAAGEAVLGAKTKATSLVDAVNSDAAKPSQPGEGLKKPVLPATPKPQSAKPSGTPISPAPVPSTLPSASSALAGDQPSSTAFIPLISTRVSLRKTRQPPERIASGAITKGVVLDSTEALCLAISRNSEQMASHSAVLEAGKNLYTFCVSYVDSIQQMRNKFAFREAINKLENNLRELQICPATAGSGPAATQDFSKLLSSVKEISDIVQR
In the case of F1245C, the “effect of a mutation on the interaction” value is “increasing interaction strength”.

The next assay covers variants of B4. To be noted: with frk_human FRK.
Consider F1245C, for which the “effect of a mutation on the interaction” value is given as “increasing interaction strength”.

The variants in the next assay derive from B4. To be noted: with sh24b_human SH2D4B.
Turning to F1245C, the “effect of a mutation on the interaction” value is “increasing interaction strength”.

The variants in a further assay derive from B4. To be noted: with srms_human SRMS.
Turning to F1245C, the “effect of a mutation on the interaction” value is reported as “increasing interaction strength”.

The variants in a further assay derive from B4. The conditions noted are these: with sta5b_human STAT5B.
F1245C: the “effect of a mutation on the interaction” value is listed as “increasing interaction strength”.

The next assay covers variants of B4. To be noted: with syk_human KARS1, Q15046.
Chain of syk_human KARS1, Q15046 (Q15046 whole entry, looked up): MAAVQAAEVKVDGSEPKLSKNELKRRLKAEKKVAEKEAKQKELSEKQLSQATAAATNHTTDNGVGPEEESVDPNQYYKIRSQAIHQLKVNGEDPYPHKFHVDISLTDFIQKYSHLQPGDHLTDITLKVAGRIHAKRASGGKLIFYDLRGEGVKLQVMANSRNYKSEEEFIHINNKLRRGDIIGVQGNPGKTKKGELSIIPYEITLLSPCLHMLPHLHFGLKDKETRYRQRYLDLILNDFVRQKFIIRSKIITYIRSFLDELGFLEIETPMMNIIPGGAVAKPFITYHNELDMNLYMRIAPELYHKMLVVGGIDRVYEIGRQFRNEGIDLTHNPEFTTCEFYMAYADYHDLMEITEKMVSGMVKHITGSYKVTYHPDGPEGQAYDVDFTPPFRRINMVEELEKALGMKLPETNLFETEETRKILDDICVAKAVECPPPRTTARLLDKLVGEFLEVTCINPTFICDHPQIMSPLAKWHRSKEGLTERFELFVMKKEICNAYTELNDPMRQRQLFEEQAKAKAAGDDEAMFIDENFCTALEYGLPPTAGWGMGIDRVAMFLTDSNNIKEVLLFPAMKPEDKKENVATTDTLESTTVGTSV
Regarding F1245C, the “effect of a mutation on the interaction” value is listed as “increasing interaction strength”.

Another assay covers variants of B4. To be noted: with crk_human CRK.
In the case of F1245C, the “effect of a mutation on the interaction” value is listed as “increasing interaction strength”.

The variants in another assay derive from B4. To be noted: with fgr_human FGR.
On to F1245C, for which the “effect of a mutation on the interaction” value is listed as “increasing interaction strength”.

Variants of B4 are the subject of the next assay. To be noted: with grb14_human GRB14, Q14449.
Chain of grb14_human GRB14, Q14449 (Q14449 whole entry): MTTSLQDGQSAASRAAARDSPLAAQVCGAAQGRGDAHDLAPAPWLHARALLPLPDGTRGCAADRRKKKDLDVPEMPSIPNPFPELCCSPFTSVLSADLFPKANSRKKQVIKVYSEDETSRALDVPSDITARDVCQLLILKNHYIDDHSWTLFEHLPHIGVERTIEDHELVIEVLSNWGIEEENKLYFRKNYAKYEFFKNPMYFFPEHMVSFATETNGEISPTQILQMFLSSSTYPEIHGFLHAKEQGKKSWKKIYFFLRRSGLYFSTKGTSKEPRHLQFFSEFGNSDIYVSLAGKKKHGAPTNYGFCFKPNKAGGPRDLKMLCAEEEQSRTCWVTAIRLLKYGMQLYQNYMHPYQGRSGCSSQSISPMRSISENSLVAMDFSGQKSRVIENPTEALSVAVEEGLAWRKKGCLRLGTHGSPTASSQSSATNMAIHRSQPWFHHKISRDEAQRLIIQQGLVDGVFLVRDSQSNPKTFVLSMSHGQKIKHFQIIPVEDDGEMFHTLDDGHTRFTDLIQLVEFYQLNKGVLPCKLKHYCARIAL
For the variant F1245C, the “effect of a mutation on the interaction” value is recorded as “increasing interaction strength”.

Variants of B4 are the subject of another assay. The conditions noted are these: with hck_human HCK.
F1245C: the “effect of a mutation on the interaction” value was “increasing interaction strength”.

Variants of B4 are the subject of a further assay. To be noted: with lyn_human LYN.
As for F1245C, the “effect of a mutation on the interaction” value is recorded as “increasing interaction strength”.

Variants of B4 are the subject of another assay. To be noted: with nck2_human NCK2, O43639.
Chain of nck2_human NCK2, O43639 (O43639 whole entry): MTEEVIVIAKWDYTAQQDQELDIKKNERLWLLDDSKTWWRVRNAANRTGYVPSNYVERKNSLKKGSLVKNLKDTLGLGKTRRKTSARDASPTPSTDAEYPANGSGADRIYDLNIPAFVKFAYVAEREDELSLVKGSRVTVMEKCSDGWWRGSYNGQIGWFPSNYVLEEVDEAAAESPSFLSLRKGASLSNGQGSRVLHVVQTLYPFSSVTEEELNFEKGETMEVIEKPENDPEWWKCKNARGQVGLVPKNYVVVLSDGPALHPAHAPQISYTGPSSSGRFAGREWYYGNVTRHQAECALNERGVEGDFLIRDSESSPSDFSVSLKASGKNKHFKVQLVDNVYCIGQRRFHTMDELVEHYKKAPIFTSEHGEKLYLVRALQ
As to F1245C, the “effect of a mutation on the interaction” value is “increasing interaction strength”.

Variants of B4 are the subject of the next assay. To be noted: with sh2b1_human SH2B1, Q9NRF2.
For the variant F1245C, the “effect of a mutation on the interaction” value was “increasing interaction strength”.

In another assay the parent is B4. To be noted: with shb_human SHB.
As to F1245C, the “effect of a mutation on the interaction” value is on record as “increasing interaction strength”.

In the next assay the parent is B4. To be noted: with socs3_human SOCS3, O14543.
Chain of socs3_human SOCS3, O14543 (O14543 whole entry): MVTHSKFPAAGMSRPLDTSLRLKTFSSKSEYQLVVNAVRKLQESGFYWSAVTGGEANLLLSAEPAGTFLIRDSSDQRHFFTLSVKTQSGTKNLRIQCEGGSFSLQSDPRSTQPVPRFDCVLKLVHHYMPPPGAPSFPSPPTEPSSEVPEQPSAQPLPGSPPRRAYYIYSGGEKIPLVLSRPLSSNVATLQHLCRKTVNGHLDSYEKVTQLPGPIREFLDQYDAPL
As to F1245C, the “effect of a mutation on the interaction” value is given as “increasing interaction strength”.

The variants in the next assay derive from B4. To be noted: with stat2_human STAT2, P52630.
Chain of stat2_human STAT2, P52630 (P52630 whole entry): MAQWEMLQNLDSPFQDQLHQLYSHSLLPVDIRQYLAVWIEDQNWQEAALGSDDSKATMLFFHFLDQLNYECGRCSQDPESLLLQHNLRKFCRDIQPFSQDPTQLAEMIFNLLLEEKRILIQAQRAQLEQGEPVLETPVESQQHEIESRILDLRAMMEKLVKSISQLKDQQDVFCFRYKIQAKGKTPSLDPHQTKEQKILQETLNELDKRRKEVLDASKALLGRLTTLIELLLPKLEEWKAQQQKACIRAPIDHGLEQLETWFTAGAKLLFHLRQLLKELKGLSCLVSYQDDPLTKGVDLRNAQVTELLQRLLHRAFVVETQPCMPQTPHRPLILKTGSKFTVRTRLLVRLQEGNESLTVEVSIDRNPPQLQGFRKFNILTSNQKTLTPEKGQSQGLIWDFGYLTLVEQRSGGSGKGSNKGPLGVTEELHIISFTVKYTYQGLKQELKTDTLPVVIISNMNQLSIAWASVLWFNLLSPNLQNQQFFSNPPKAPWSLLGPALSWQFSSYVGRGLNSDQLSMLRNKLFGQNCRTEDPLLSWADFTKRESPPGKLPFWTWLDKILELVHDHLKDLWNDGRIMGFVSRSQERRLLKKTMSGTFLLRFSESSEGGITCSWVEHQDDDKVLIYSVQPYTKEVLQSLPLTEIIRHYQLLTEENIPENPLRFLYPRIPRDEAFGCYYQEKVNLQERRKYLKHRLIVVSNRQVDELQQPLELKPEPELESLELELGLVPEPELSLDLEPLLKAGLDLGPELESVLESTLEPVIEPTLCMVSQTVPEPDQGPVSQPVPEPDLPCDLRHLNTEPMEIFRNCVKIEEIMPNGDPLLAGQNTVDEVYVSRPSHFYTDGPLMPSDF
As for F1245C, the “effect of a mutation on the interaction” value is listed as “increasing interaction strength”.

The variants in another assay derive from B4. The conditions noted are these: with zap70_human ZAP70, P43403.
Chain of zap70_human ZAP70, P43403 (P43403 whole entry): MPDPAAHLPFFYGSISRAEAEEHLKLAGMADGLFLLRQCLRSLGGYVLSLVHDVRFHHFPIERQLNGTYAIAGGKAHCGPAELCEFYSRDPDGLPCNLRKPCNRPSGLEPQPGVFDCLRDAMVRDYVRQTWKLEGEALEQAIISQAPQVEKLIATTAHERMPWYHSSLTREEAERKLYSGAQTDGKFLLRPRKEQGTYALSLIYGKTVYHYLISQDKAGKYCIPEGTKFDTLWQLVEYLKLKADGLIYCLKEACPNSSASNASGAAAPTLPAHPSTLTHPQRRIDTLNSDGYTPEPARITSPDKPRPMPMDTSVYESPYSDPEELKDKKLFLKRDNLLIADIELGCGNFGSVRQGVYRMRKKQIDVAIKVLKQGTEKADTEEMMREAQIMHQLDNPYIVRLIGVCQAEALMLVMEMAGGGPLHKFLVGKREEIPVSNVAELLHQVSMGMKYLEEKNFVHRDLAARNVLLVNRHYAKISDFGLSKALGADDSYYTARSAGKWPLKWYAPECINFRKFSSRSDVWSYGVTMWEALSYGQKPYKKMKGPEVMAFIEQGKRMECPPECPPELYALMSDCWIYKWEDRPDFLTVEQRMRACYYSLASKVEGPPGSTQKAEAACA
F1245C: the “effect of a mutation on the interaction” value is listed as “increasing interaction strength”.

Variants of B4 are the subject of another assay. To be noted: with rack1_human RACK1, P63244.
Turning to F1245C, the “effect of a mutation on the interaction” value is “increasing interaction strength”.
